Data on six molecules can be found in patent publication US20260055143A1, “HIGH AFFINITY VARIANTS OF SH2 DOMAINS” (Axoiya Inc., priority 2023, published 2026).

Test [1] has as its target pTyr-containing peptide (pEZ) derived from Ezrin, PPV{pTyr}EPVS. The experiment in a line: phage ELISA, phage-displayed clone on immobilized peptide.
The target is the same in test [2]. The experiment in a line: fluorescence polarization, purified SH2 domain with fluorescein-labelled ezrin phosphopeptide.
For test [3] the target is unchanged. The experiment in a line: fluorescence polarization; fold change over wt Fes SH2. For orientation: Polarisation of emitted light reports the rotation of a fluorescent probe.

B1: sFes^4, superbinder Fes SH2 domain variant (designed binder)
chain: MKIEEHHHHHHSSGKLGLNDIFEAQKIEWHESSGEDLYFQSGTTMDDYKDDDDKGGSEVQKPLHEQLWYHGAIPRAEVAELLVHSGDFLVRESQGRKVYVLSVLWDGLPRHFIIQSLDNLYRLEGEGFPSIPLLIDHLLSTQQPLTKKSGVVLHRAVPSR
In general, IC50 refers to the concentration that gives 50% inhibition. Low readings indicate greater potency in that assay, high ones weaker potency in that assay. Turning to B1, the binding signal for pEZ over that for the unphosphorylated peptide EZ in test [1] was determined as 10 fold. In addition, in test [2], the IC50 stood at 17.4 nM. In addition, in test [3], the Fold Change worked out at 77 fold.

B2: sFes^2, superbinder Fes SH2 domain variant (designed binder)
chain: MKIEEHHHHHHSSGKLGLNDIFEAQKIEWHESSGEDLYFQSGTTMDDYKDDDDKGGSEVQKPLHEQLWYHGAIPRAEVAELLVHSGDFLVRERQRKQEYVLSVLWDGLPRHFIIQSLDNLYRLEGEGFPSIPLLIDHLLSTQQPLTKKSGVVLHRAVPSR
Regarding B2, the binding signal for pEZ over that for the unphosphorylated peptide EZ in test [1] is 10 fold. The molecule also gave an IC50 in test [2] of 3.9 nM. Moreover, the Fold Change in test [3] amounted to 344 fold.

B3: sFes^6, superbinder Fes SH2 domain variant (designed binder)
chain: MKIEEHHHHHHSSGKLGLNDIFEAQKIEWHESSGEDLYFQSGTTMDDYKDDDDKGGSEVQKPLHEQLWYHGAIPRAEVAELLVHSGDFIVRESQTYPGYVLSVLWDGLPRHFIIQSLDNLYRLEGEGFPSIPLLIDHLLSTQQPLTKKSGVVLHRAVPSR
Turning to B3, the binding signal for pEZ over that for the unphosphorylated peptide EZ in test [1] was found to be 10 fold. Also, the concentration for half-maximal inhibition (IC50) in test [2] is 48 nM. The molecule further registered a Fold Change in test [3] of 28 fold.

B4: sFes^3, superbinder Fes SH2 domain variant (designed binder)
chain: MKIEEHHHHHHSSGKLGLNDIFEAQKIEWHESSGEDLYFQSGTTMDDYKDDDDKGGSEVQKPLHEQLWYHGAIPRAEVAELLVHSGDFLVRESPRIQEYVLSVLWDGLPRHFIIQSLDNLYRLEGEGFPSIPLLIDHLLSTQQPLTKKSGVVLHRAVPSR
In test [1], B4 returned a binding signal for pEZ over that for the unphosphorylated peptide EZ of 10 fold. Moreover, the IC50 in test [2] amounted to 14 nM. Further, the Fold Change in test [3] was found to be 95.9 fold.

B5: sFes^5, superbinder Fes SH2 domain variant (designed binder)
chain: MKIEEHHHHHHSSGKLGLNDIFEAQKIEWHESSGEDLYFQSGTTMDDYKDDDDKGGSEVQKPLHEQLWYHGAIPRAEVAELLVHSGDFLVRESISKQGYVLSVLWDGLPRHFLIQSLDNLYRLEGEGFPSIPLLIDHLLSTQQPLTKKSGVVLHRAVPSR
B5 came in with a binding signal for pEZ over that for the unphosphorylated peptide EZ in test [1] of 10 fold. In test [2], this molecule returned an IC50 of 39.7 nM. In addition, the Fold Change in test [3] is 33.8 fold.

B6: sFes^1 (SuperFes), superbinder Fes SH2 domain variant (designed binder)
chain: MKIEEHHHHHHSSGKLGLNDIFEAQKIEWHESSGEDLYFQSGTTMDDYKDDDDKGGSEVQKPLHEQLWYHGAIPRAEVAELLVHSGDFLVREGQSQPDYVLSVLWDGLPRHFIIQSLDNLYRLEGEGFPSIPLLIDHLLSTQQPLTKKSGVVLHRAVPSR
In test [1], B6 gave a binding signal for pEZ over that for the unphosphorylated peptide EZ of 10 fold. The same molecule gave an IC50 in test [2] of 2.7 nM. This molecule also had a Fold Change in test [3] of 493 fold.
